Experiments:
recombinant LILRB1 = biological target: T1, recombinant LILRB1 (human, UniProt Q8NHL6 24-461); assay: ELISA, coated recombinant LILRB1, antibody titration;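 further: serially diluted anti-LILRB1 antibodies incubated 60 min at 37 °C on plates coated with 50 ng/well recombinant protein, TMB colorimetric development read as absorbance at 450 nm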
T1 construct: LILRB1-Fc proteins were also made; also called LILRB1 recombinant proteins
Procedure: ELISA. LILRB1 recombinant proteins (50 ng/well, 100 μL per well) were coated on Corning 96-well ELISA plates at 37° C. for 4 hrs. Plates were blocked for 2 hrs at 37° C. with 5% non-fat milk. After washing with PBST, 100 μL of serial diluted anti-LILRB1 antibodies were added and incubated for 60 min at 37° C. […] Plates were washed again with PBST for another 5 times, then the immunoreactions were developed with TMB substrates (Sigma, Cat #T0440) and stopped by the addition of 2 M H_2SO_4 before the plate was read at 450 nm.

[1] = biological target: T2, human LILRB1 recombinant protein (human, UniProt Q8NHL6 24-461); assay: ELISA, B cell supernatant
T2 construct: The ELISA method says only 'LILRB1 recombinant proteins' coated on plates; also called leukocyte immunoglobulin-like receptor subfamily B member 1
T2 sequence (Q8NHL6 24-461 limits assumed): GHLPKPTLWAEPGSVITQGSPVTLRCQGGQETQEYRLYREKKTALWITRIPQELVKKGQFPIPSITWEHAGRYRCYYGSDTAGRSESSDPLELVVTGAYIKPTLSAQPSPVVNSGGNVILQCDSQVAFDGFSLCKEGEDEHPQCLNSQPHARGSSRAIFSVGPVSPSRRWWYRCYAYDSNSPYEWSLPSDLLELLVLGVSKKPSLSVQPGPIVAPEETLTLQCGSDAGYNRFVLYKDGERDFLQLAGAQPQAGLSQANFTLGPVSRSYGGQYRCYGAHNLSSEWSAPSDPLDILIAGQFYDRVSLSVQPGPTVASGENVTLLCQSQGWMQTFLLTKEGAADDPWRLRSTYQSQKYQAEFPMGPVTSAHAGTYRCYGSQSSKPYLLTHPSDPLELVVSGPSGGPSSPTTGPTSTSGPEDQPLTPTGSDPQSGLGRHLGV

T1 sequence (Q8NHL6 24-461 limits assumed): as above

Binder | EC50 (recombinant LILRB1) [µg/mL] | OD450 [1] [OD450]
B1-#58-1 (antibody, V domains shown, recombinant rabbit IgG) VH: EQSLEESGGDLVKPGASLTLTCTASAFSFSSSSWICWVRQAPGKGLEWIACIYGGSVGTTYYASWAKGRFTISKPSSTTVTLQMTSLAAADTATYFCATNTDSSRSYYNLWGPGTLVTISS VL: ELVLTQTPSSVEVAVGGAVTIKCQASHIITNYLAWYQQRPGQPPKLLIYDASKLASGVPSRFKGSGSGTEFTLTISDLECADAATYYCQNYLYFSSGDWNVFGGGTEVVVK | 0.0171 | –
mAb of B cell clone 58 (supernatant) (antibody, V domains shown, rabbit; also called B1-#58-1) VH: EQSLEESGGDLVKPGASLTLTCTASAFSFSSSSWICWVRQAPGKGLEWIACIYGGSVGTTYYASWAKGRFTISKPSSTTVTLQMTSLAAADTATYFCATNTDSSRSYYNLWGPGTLVTISS VL: ELVLTQTPSSVEVAVGGAVTIKCQASHIITNYLAWYQQRPGQPPKLLIYDASKLASGVPSRFKGSGSGTEFTLTISDLECADAATYYCQNYLYFSSGDWNVFGGGTEVVVK | – | 2.26
mAb of B cell clone 83 (supernatant) (antibody, V domains shown, rabbit; also called B1-#83) VH: EQSLKESGGDLVKPGASLTLTCTASAFSFSSSSWICWVRQAPGKGLEWIACIYGGSVATTYYATWAKGRFTISKPSSTTVTLQMTSLPAADTATYFCATNTDSSRSYYNLWGPGTLVTVSS VL: ELDLTQTPSSVEVAVGGAVTIKCQASHIITNYLAWYQQRPGQPPKLLIYDASKLASGVPSRFKGSGSGTEFTLTISDLECADAATYYCQNYLYFSSGDWNVFGGGTEVVVK | – | 2.32
B1-#202-2 (antibody, V domains shown, recombinant rabbit IgG) VH: SQSLEESGGGLVKPGASLTLTCKGSGFSFNGDYYMCWVRQTPGKGLEWIGCIYAAGDDTYYATWAKGRFTISKTSSTTVTLQMTSLTAADTATYFCARDQADSYAFGLWGPGTLVTISS VL: ELVLTQTASPVSGAVGGTVTIKCQASQNIYSNLAWYQQKPGQPPKLLIYSASKLASGVPSRFKGSGSGTEYTLTISGVQCEDAATYYCQSYYYTASADTTFGGGTEVEIK | 0.0594 | –
mAb of B cell clone 76 (supernatant) (antibody, V domains shown, rabbit; also called B1-#76) VH: EQSVEESGGGLVQPEGSLTLTCTASGFSFSGSCDMSWVRQAPGKGLEWIACIVLSNGNTYYAGWAQGRFTISKISSTTVTLEMTSLTAADTATYFCARERYPGAFSSGLDLWGQGTLVTVSS VL: ELDLTQTPSPVSAAVGGTVTINCQASQIVANGRLAWYQQKPGQPPKLLIYATSTLASGVPSRFKGSGSGTQFTLTINGVQCDDAATYYCQGAYSSGDVRTFGGGTEVVVK | – | 2.14
B1-#56 (antibody, V domains shown, recombinant rabbit IgG) VH: QSLEESGGDLVQPEGSLTLTCTASGFSFSINLYMCWVRQAPGKGLEWIACIYGNNNANTYYTTWAKGRFTISKTSPTTVTLQMTSLTGADTATYFCARDTAAYYAFSLWGPGTLVTISS VL: ELVMTQTPSSSSAAVGGTVTIKCQASQSIGSRFAWYQQKPGQRPKLLIYEASKLPSGVPSRFKGSGSGTEFTLTISDLECADAAIYYCQCTYYESSSGGGFGGGTEVVVK | 0.0438 | –
B1-#175 (antibody, V domains shown, recombinant rabbit IgG) VH: ESEGGLVKPGGTLTLTCKVSGIDFNSYKYYYMCWVRQAPGKGLEWIGCMSTASRNIYYASWAKGRFTISETSSTSVTLQMTTLTAADTATYFCAKSHGGDGGYGVVLWGPGTLVTISS VL: ELVMTQTPSSVSAAVGDTLTINCQASETISNRLAWYQQKPGQPPKLLIYSASTLESGVPSRFRGSGSGTQFTLTISDLECADAATYYCQSIRSSSGVVHPNTFGGGTEVEIK | 0.0053 | –
B1-#160 (antibody, V domains shown, recombinant rabbit IgG) VH: QEQLVESGGGLVQPEGSLTLTCKASGIDFSSGYWICWVRQAPGKGLELIACIFTSSGTTYYASWAKGRFTISKTSSTTVTLQMTSLTAADTATYFCARDIYSYGMDLWGPGTLVTVSS VL: ELDLTQTPASVSAAVGGTVTIKCQASQSISSSYLAWYQQKPGQPPKLLIYSASSTASGVPSRFKGSGSGTQFTLTISDLECADAATYYCQSTYISSSKYGAVFGGGTELEIK | 0.0285 | –
mAb of B cell clone 74 (supernatant) (antibody, V domains shown, rabbit; also called B1-#74) VH: QSLEESGGGLVKPGASLTLTCTASGFSLNRYYMCWVRQAPGKGLEWIGCIYSGSGSTYYASWAKGRFTISKTSSTTVTLQMTSLPAADTATYFCGRLDYRVIYAFNLWGPGTLVTISS VL: ELVLTQTPASVSAAVGGTVTINCQASQSIGSGNLAWYQQKPGQPPKLLIYLASTLASGVPPRFKGSGSGTEFTLTISDLECDDAATYYCQYTYYGTTYDNAFGGGTELEIK | – | 2.4

The remaining lines, values ahead:

EC50 (recombinant LILRB1) [µg/mL] | OD450 [1] [OD450] | Binder
0.0155 | – | B1-#83 (antibody, V domains shown, recombinant rabbit IgG) VH: EQSLKESGGDLVKPGASLTLTCTASAFSFSSSSWICWVRQAPGKGLEWIACIYGGSVATTYYATWAKGRFTISKPSSTTVTLQMTSLPAADTATYFCATNTDSSRSYYNLWGPGTLVTVSS VL: ELDLTQTPSSVEVAVGGAVTIKCQASHIITNYLAWYQQRPGQPPKLLIYDASKLASGVPSRFKGSGSGTEFTLTISDLECADAATYYCQNYLYFSSGDWNVFGGGTEVVVK
– | 2.25 | mAb of B cell clone 72 (supernatant) (antibody, V domains shown, rabbit; also called B1-#72-1) VH: QSVKESGGGLVQPEGSLALTCKASGIDLSNYWYMCWVRQAPGKGLEWIGCVATDSSRTHYATWAKGRFTVSKTSSTTVTLQMTSLTAADTATYFCARGSGASTNGVWWVMGDGMDLWGPGTLVTISS VL: ELVMTQTPSSVSAAVGGTVTIKCQASPSISTYLSWYQQKPGQPPKRLINRASTLASGVPPRFKGSGAGTQFTLTISDLECADAATYYCQNNYHSGSSNGGGVAFGGGTEVEIK
0.0154 | – | B1-#79 (antibody, V domains shown, recombinant rabbit IgG) VH: QSLEESGGGLVQPEGSLTLTCTVSGFSFSSSWYMCWVRQAPGKGLEWIACIYTLRSGAAHYANWAKGRFTISKASSTTVTLQMNSLTAADTATYFCARATYAYAGAGDLWGPGTLVTVSS VL: ELVLTQTPSSVSAAVGGTVTINCQASEDIDRYLAWYQQKPGQRPKLLIVDASTLPSGVPSRFKGSGSGTEFTLTISDLECADGATYYCQSYDNSDNNGFGGGTEVVVK
– | 2.32 | mAb of B cell clone 79 (supernatant) (antibody, V domains shown, rabbit; also called B1-#79) VH: QSLEESGGGLVQPEGSLTLTCTVSGFSFSSSWYMCWVRQAPGKGLEWIACIYTLRSGAAHYANWAKGRFTISKASSTTVTLQMNSLTAADTATYFCARATYAYAGAGDLWGPGTLVTVSS VL: ELVLTQTPSSVSAAVGGTVTINCQASEDIDRYLAWYQQKPGQRPKLLIVDASTLPSGVPSRFKGSGSGTEFTLTISDLECADGATYYCQSYDNSDNNGFGGGTEVVVK
0.181 | – | B1-#38 (antibody, V domains shown, recombinant rabbit IgG) VH: EQSVEESEGGLVQPEGSLTLTCTASGFSFSNDYWICWVRQAPGKGLEWIGCGHIGSFRTTYYASWAKGRFSISKTSSTTVTLQMTSLTGADTATYFCARSPYDDGYGGFTFNLWGPGTLVTISS VL: ELDMTQTPSSVEAAVGGTVTVKCQVSQSIGNAIAWYQQKPGQPPKLLIYKASTLASGVPSRFKGSGSGTEFTLTISDLECADAATYYCQNYYYSNTNSFGGGTEVVVK
0.0284 | – | B1-#76 (antibody, V domains shown, recombinant rabbit IgG) VH: EQSVEESGGGLVQPEGSLTLTCTASGFSFSGSCDMSWVRQAPGKGLEWIACIVLSNGNTYYAGWAQGRFTISKISSTTVTLEMTSLTAADTATYFCARERYPGAFSSGLDLWGQGTLVTVSS VL: ELDLTQTPSPVSAAVGGTVTINCQASQIVANGRLAWYQQKPGQPPKLLIYATSTLASGVPSRFKGSGSGTQFTLTINGVQCDDAATYYCQGAYSSGDVRTFGGGTEVVVK
0.0106 | – | B1-#220 (antibody, V domains shown, recombinant rabbit IgG) VH: QSVEESGGGLVQPEGSLTLTCTASGFSFSGIVYMCWVRQAPGKGLEWIACAFVGSGGSTYYATWATGRFTISKTSSTTVTLQMTSLTAADTATYFCAKSYNYNGLGLWGPGTLVTVSS VL: ELDMTQTPASVSAAVGGTVTIKCQASQSITNALAWYQQKPGQPPKLLIYRASTLASGVSSRFKGSGSGTEFTLTISDLECADAATYYCQCSYYGSTYFGSPFGGGTEVEIK
– | 2.09 | mAb of B cell clone 56 (supernatant) (antibody, V domains shown, rabbit; also called B1-#56) VH: QSLEESGGDLVQPEGSLTLTCTASGFSFSINLYMCWVRQAPGKGLEWIACIYGNNNANTYYTTWAKGRFTISKTSPTTVTLQMTSLTGADTATYFCARDTAAYYAFSLWGPGTLVTISS VL: ELVMTQTPSSSSAAVGGTVTIKCQASQSIGSRFAWYQQKPGQRPKLLIYEASKLPSGVPSRFKGSGSGTEFTLTISDLECADAAIYYCQCTYYESSSGGGFGGGTEVVVK
– | 2.26 | mAb of B cell clone 41 (supernatant) (antibody, V domains shown, rabbit; also called B1-#41-1) VH: QSVKESGGDLVKPGASLTLTCTASGFSFSSSYWICWVRQAPGKGLEWIACIYAGSSGSTYYASWAKGRFTISKTSSTTVTLQMTSLTAADTATYFCARSTSGSYGAGLGLWGPGTLVTISS VL: ELDMTQTASPVSGAVGGTVTIKCQASQNIYNNIGWYQQKPGQPPNLLIYGPSYLASGVPSRFKGSRSGTEYTLTISDLECADAATYYCQSDDWMSISPDIVFGGGTEVEIK
0.0109 | – | B1-#224 (antibody, V domains shown, recombinant rabbit IgG) VH: EQSVEESGGGLVQPEGSLTLTCTASGIDFSSGAWICWVRQAPGKGLELIACIFTTSGFTYYASWAKGRFTISKTSSTTVTLQMTSLTAADTATYFCARDIYSYGMDLWGPGTLVTISS VL: ELVLTQTPSSVSEPVGGTVTIKCQASQSISSSYLAWYQQKPGQPPKFLIYSASTLASGVPSRFKGSGSGTEFTLTISDLECADAATYYCQSTYISSSNYGAAFGGGTEVEIK
0.0093 | – | B1-#15 (antibody, V domains shown, recombinant rabbit IgG) VH: EQSVEESGGDLVKPGASLTLTCTASGFSSSSSAYMCWVRQAPGKGLEWIACIFIGSGSDSYYATWAKGRFTISKTSSTTVTLQMTSLTAADTATYFCARNTYDWNGYIYGPCYFGLWGPGTLVTISS VL: ELDLTQTPSSVEAAVGGTVTIKCQASQSIYNYLAWYQQKPGHSPKLLIYDVSKLASGVSSRFKGSGSGTEFTLTISDLECADAATYYCQSYYGNTVSFTFGGGTEVEIK
0.0242 | – | B1-#28 (antibody, V domains shown, recombinant rabbit IgG) VH: EQSLEESGGGLVKPGASLTLTCKASGFSFSSDYDMCWVRQAPGKGLEWIGCIVTGFSGRIYYATWARGRFTFSRTSSTTLTLQMTSLTAADTATYFCARDSGNYNWDLWGPGTLVTISS VL: ELDLTQTPTSVSAAVGGTVTIKCQASQSISDYLSWYQQKPGQPPKLLIYRASTLASGVPSRFKGSGSGTEFTLTISDLECADAATYYCQSNYYGSQGCTFGGGTEVEIK
